We go through 4 molecules from patent US20240182562A1.

Assay [1] addresses Human CLDN18.1 (human) (UniProt P56856). Kind of assay: FACS, hybridoma culture supernatant on 293T-human CLDN18.1 cells (permeable membrane treatment).
Assay [2] has the same target. Kind of assay: FACS, hybridoma culture supernatant on CHO-human CLDN18.1 cells (permeable membrane treatment).

Human CLDN18.1 (human), sequence (P56856 whole entry): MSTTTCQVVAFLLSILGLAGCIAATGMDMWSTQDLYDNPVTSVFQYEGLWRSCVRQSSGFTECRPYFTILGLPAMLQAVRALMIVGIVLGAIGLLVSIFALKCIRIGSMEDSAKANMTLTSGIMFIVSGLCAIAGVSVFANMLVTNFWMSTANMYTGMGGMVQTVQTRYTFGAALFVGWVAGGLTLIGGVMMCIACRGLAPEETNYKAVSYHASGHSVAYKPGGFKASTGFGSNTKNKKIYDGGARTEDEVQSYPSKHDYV

B1: 7E3 (hybridoma clone, murine CLDN18.2 antigen-binding protein) (antibody, V domains shown)
VH: EVQLQQSGPELVKPGASVKMSCKASGYTFTNYIIHWVKQKPGQGLEWIGYINPYTDGPKYNEKFKGRATLTSDKSSSTAYMEFSSLTSEDSAVYYCARLNRGNAMDYWGQGTSVTVSS
VL: DIVMTQSPSSLTVTVREKVTLSCKSSQSLLNSGNQKNYLTWYQQKPGQPPKLLIYWASTRESGVPDRFTGSGSGTDFTLTISSVQAEDLAVYYCQNVYIYPFTFGAGTKLELKR
With B1, the Average fluorescence intensity in the assay with Human CLDN18.1 (human) [1] is 3040; with Human CLDN18.1 (human) [2], 3380.

B2: 5E6 (hybridoma clone, murine CLDN18.2 antigen-binding protein) (antibody, V domains shown)
VH: EVQLQQSGPELVKPGASVKMSCKASGYTFTNYVMNWVKQKPGQGLEWIGYINPYNDGTKYNERFKGKATLTSDKSSSTAFMEVSSLTSEDSAVYYCARLYRGNAMDYWGQGTSVTVSS
VL: DIVMTQSPSSLTVTVREKVTLSCKSSQSLLNSGNQKNYLTWYQQKPGQPPKLLIYWASTRESGVPDRFTGSGSGTDFTLTISSVQAEDLAVYYCQNVYIYPFTFGAGTKLELKR
In the case of B2, the Average fluorescence intensity with Human CLDN18.1 (human) [1] stood at 4330; with Human CLDN18.1 (human) [2], 5370.

B3: 14E12 (hybridoma clone, murine CLDN18.2 antigen-binding protein) (antibody, V domains shown)
VH: EVQLQESGPELVKPGASVKMSCKASGYTFTNYIIHWVKQKPGQGLEWIGYINPYTDGPKYNEKFKGRATLTSDKSSSTAYMEFSSLTSEDSAVYYCARLNRGNAMDYWGQGTSVTVSS
VL: DIVMTQSPSSLSVSAGEKVTMSCKSSQSLLNNGNQKNYLAWYQQKPGQPPKLLIYGASTRESGVPDRFTGSGSGTDFALTISSVQAEDLAVYYCQNDLYYPFTFGSGTKLDIKR
In the case of B3, the Average fluorescence intensity worked out at 2580 with Human CLDN18.1 (human) [1] and 1860 in the assay with Human CLDN18.1 (human) [2].

B4: 17B10 (hybridoma clone, murine CLDN18.2 antigen-binding protein) (antibody, V domains shown)
VH: EVQLQESGPELVKPGASVKMSCKASGYTFTNYIIHWVKQKPGQGLEWIGYINPYTDGPKYNEKFKGRATLTSDKSSSTAYMEFSSLTSEDSAVYYCARLNRGNAMDYWGQGTSVTVSS
VL: DIVMTQSPSSLTVTAGEKVTMNCKSSQSLLNSGNQKNYLTWYQQKPGQPPKLLIYWASTRESGVPDRFTGSGSGTDFTLTISSVQAEDLAVYYCQNDYSFPFTFGSGTKLEIKR
As to B4, the figures for the Average fluorescence intensity with Human CLDN18.1 (human) [1] and with Human CLDN18.1 (human) [2] were 2400 and 1680, respectively.
